Data reported in US20230044467A1.

Columns and labels:
[1] = target: Nα,Nε-diacetyl-L-Lys-D-Ala-D-Ala tripeptide; experiment: ITC, 25 C, one-site model
[2] = target: Nα,Nε-diacetyl-L-Lys-D-Ala-D-Ala tripeptide; experiment: ITC, tripeptide injected into 10 uM glycopeptide, 25 C, one-site model

TΔS [1] [kcal/mol] | ΔG [1] [kcal/mol] | ΔH [1] [kcal/mol] | Kd [2] [nM] | Substance
0.2 | -7.6 | -7.4 | 2800 | keratinimicin C (peptide)
0.85 | -7.9 | -7 | 1700 | keratinimicin A (peptide)
-0.96 | -7.6 | -8.6 | 2700 | vancomycin (peptide)
